Reference: patent US20090252683A1 (Amgen, published 2009)
No end group written: not given here. *: point of attachment. Biotin = O=C1N[C@H]2[C@H](CS[C@H]2CCCCC(=O)*)N1; linker = not defined here

Assays:
[1] = target: cynomolgus CD3 antigen on cynomolgus PBMC / macaque T cells (Macaca fascicularis (cynomolgus), UniProt Q95LI5 22-117; Q95LI7 23-110; Q95LI8 22-103); assay: cell-based or functional assay
[2] = target: T1, human EpCAM antigen on Kato III cells or human EpCAM transfected CHO cells (human, UniProt P16422 24-265); assay: cell-based or functional assay
T1 sequence: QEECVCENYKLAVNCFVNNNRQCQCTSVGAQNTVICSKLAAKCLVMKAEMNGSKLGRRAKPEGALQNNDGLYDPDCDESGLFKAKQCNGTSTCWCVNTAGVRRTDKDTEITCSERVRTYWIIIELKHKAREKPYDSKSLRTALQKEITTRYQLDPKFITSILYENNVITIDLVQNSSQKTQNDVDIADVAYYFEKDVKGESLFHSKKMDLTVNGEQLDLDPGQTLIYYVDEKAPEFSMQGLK

[3] = target: T2, biotin-linker-EFSELEQSGYYVC (human, reading uncertain; also: short linker, not given here, printed as biotin-linker-EFSELEQSGYYVC); assay: dot blot, 75 µg peptide on nitrocellulose, 3 µg/ml antibody
T2 construct: also called 13mer peptide of human CD3 epsilon, biotinylated N-terminally; peptide (1)
T2 peptide: {Biotin-linker}-EFSELEQSGYYVC
Excerpt: (§1) To verify the epitope of the human-like cross-species specific anti-CD3 antibody fragment described in Example 16 on human CD3 epsilon, the identified binding region as determined in Experiment 18 was further analyzed by a dot-blotting assay using a 13mer peptide covering the defined binding area of amino acid residues “FSELE” on human CD3 epsilon. This peptide comprises the amino acid sequence “[…]” (SEQ ID NO. 195) of human CD3 epsilon. The peptide exists in two forms and is either biotinylated N- or C-terminally. In case of the N-terminal labelling, a short linker connects the peptide with the biotin. As described in Example 18, the antibody fragment was converted to a murine IgG format with a murine gammal heavy chain comprising the VH region as shown in SEQ ID NO. 110 and a kappa light chain comprising the VL region as shown in SEQ ID NO. 168. The dot blotting was performed as follows. The Minifold I Spot Blot System from Schleicher & Schuell was used for immobilizing the peptides on a nitrocellulose membrane (Protran BA 85, 0.45 μm). 75 μg of each peptide in 100 μl TBS were filtered through the membrane using vacuum. After the filtration step the membrane was blocked with 1×TBS/1% (w/v) blocking reagent (BM Chemiluminescence Blotting Substrate (POD) of Roche Diagnostics GmbH) for 2 h. […]

EFSELEQSGYYVC-biotin = target: T3, EFSELEQSGYYVC-biotin (human); assay: as above
T3 construct: also called 13mer peptide of human CD3 epsilon, biotinylated C-terminally; peptide (2)
T3 peptide: EFSELEQSGYYVC-biotin
Excerpt: as §1

[4] = target: T4, human CAIX antigen on A549 cells (human, UniProt Q16790 38-459); assay: FACS, A549 cells, 1 µg/ml purified protein (FIG. 26)
Experimental: FIG. 26: FACS binding analysis of cross-species specific bispecific single chain construct CAIX HL×SEQ ID NO. 194 to HPB-ALL (human CD3+), cynomolgus PBMC (cynomolgus CD3+), A549 (human CAIX+) and CYNOM-KI (cynomolgus CAIX+) cells, respectively. The FACS staining was performed as described in Example 23. The thick line represents cells incubated with 1 μg/ml purified monomeric protein that were subsequently incubated with the anti-his antibody and the PE labeled detection antibody. The thin histogram line reflects the negative control: cells only incubated with the anti-his antibody and the detection antibody.
In order to test the functionality of the cross-species specific bispecific antibody constructs with regard to binding capability to human and cynomolgus EGFR and CD3, respectively, a FACS analysis was performed. For this purpose the EGFR positive epidermoid carcinoma A431 cells (ATCC, CRL-1555) and CD3 positive human T cell leukemia cell line HPB-ALL (DSMZ, Braunschweig, ACC483) were used to check the binding to human antigens. […] The cells were washed twice in PBS and binding of the construct was detected with an unlabeled murine Penta His antibody (diluted 1:20 in 50 μl PBS with 2% FCS; Qiagen; Order No. 34660). After washing, bound anti His antibodies were detected with an Fc gamma-specific antibody (Dianova) conjugated to phycoerythrin, diluted 1:100 in 50 μl PBS with 2% FCS. […]

[5] = target: T4, human CAIX antigen on A549 cells; assay: FACS, A549 cells, 1 µg/ml purified protein (FIG. 27)
[6] = target: T4, human CAIX antigen on A549 cells; assay: FACS, A549 cells, 1 µg/ml purified protein (FIG. 28)

Chain of cynomolgus CD3 antigen on cynomolgus PBMC / macaque T cells (Q95LI5 22-117, chain 1 of 3): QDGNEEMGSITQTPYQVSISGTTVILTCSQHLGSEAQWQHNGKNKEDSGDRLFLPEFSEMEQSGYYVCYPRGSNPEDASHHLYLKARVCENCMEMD
Chain of cynomolgus CD3 antigen on cynomolgus PBMC / macaque T cells (Q95LI7 23-110, chain 2 of 3): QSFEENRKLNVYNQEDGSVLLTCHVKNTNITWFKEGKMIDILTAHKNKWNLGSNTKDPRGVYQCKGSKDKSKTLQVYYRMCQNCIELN
Chain of cynomolgus CD3 antigen on cynomolgus PBMC / macaque T cells (Q95LI8 22-103, chain 3 of 3): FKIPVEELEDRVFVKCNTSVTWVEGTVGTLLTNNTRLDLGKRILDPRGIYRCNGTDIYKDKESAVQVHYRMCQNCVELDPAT

B1: 5-10LH×SEQ ID NO. 14 bispecific single chain antibody (bispecific antibody)
chain: ELVMTQSPSSLTVTAGEKVTMSCKSSQSLLNSGNQKNYLTWYQQKPGQPPKLLIYWASTRESGVPDRFTGSGSGTDFTLTISSVQAEDLAVYYCQNDYSYPLTFGAGTKLEIKGGGGSGGGGSGGGGSEVQLLEQSGAELVRPGTSVKISCKASGYAFTNYWLGWVKQRPGHGLEWIGDIFPGSGNIHYNEKFKGKATLTADKSSSTAYMQLSSLTFEDSAVYFCARLRNWDEPMDYWGQGTTVTVSSGGGGSQVQLQQSGAELARPGASVKMSCKASGYTFTRSTMHWVKQRPGQGLEWIGYINPSSAYTNYNQKFKDKATLTADKSSSTAYMQLSSLTSEDSAVYYCASPQVHYDYNGFPYWGQGTLVTVSAGGGGSGGGGSGGGGSQVVLTQSPAIMSAFPGEKVTMTCSASSSVSYMNWYQQKSGTSPKRWIYDSSKLASGVPARFSGSGSGTSYSLTISSMETEDAATYYCQQWSRNPPTFGGGTKLQITHHHHHH
In the case of B1, the “EC50 (half maximal killing), FACS-based cytotoxicity, Kato III target cells, cynomolgus PBMC effector cells” value [1] is reported as 0.087 ng/mL and the “EC50 (half maximal killing), FACS-based cytotoxicity, Kato III target cells, human PBMC effector cells” value [2] is reported as 0.0013 ng/mL.

B2: 5-10LH×SEQ ID NO. 12 bispecific single chain antibody (bispecific antibody)
chain: ELVMTQSPSSLTVTAGEKVTMSCKSSQSLLNSGNQKNYLTWYQQKPGQPPKLLIYWASTRESGVPDRFTGSGSGTDFTLTISSVQAEDLAVYYCQNDYSYPLTFGAGTKLEIKGGGGSGGGGSGGGGSEVQLLEQSGAELVRPGTSVKISCKASGYAFTNYWLGWVKQRPGHGLEWIGDIFPGSGNIHYNEKFKGKATLTADKSSSTAYMQLSSLTFEDSAVYFCARLRNWDEPMDYWGQGTTVTVSSGGGGSQAVVTQESALTTSPGETVTLTCRSSTGAVTTSNYANWVQEKPDHLFTGLIGGTNKRAPGVPARFSGSLIGDKAALTITGAQTEDEAIYFCALWYSNLWVFGGGTKLTVLGGGGSGGGGSGGGGSEVKLLESGGGLVQPKGSLKLSCAASGFTFNTYAMNWVRQAPGKGLEWVARIRSKYNNYATYYADSVKDRFTISRDDSQSILYLQMNNLKTEDTAMYYCVRHGNFGNSYVSWFAYWGQGTLVTVSAHHHHHH
B2 was tested, and the “EC50 (half maximal killing), FACS-based cytotoxicity, Kato III target cells, cynomolgus PBMC effector cells” value [1] was 0.069 ng/mL and the “EC50 (half maximal killing), FACS-based cytotoxicity, Kato III target cells, human PBMC effector cells” value [2] was 0.0015 ng/mL.

B3: cross-species specific anti-CD3 antibody (murine IgG1 comprising the VH chain shown in SEQ ID NO. 110 and the VL chain shown in SEQ ID NO. 168) (antibody, V domains shown)
VH: EVQLLESGGGLVQPGGSLKLSCAASGFTFNTYAMNWVRQAPGKGLEWVARIRSKYNNYATYYADSVKDRFTISRDDSKNTAYLQMNNLKTEDTAVYYCVRHGNFGNSYVSWFAYWGQGTLVTVSS
VL: ELVVTQEPSLTVSPGGTVTLTCRSSTGAVTTSNYANWVQQKPGQAPRGLIGGTNKRAPGTPARFSGSLLGGKAALTLSGVQPEDEAEYYCALWYSNLWVFGGGTKLTVL
notes: full IgG with a murine gamma1 heavy chain and a kappa light chain; also called human-like cross-species specific anti-CD3 antibody; cross-species specific anti-CD3 IgG1 antibody
B3: binds [3]; binds (EFSELEQSGYYVC-biotin).

B4: CAIX HL × SEQ ID NO. 194 (bispecific antibody)
chain: DVKLVESGGGLVKLGGSLKLSCAASGFTFSNYYMSWVRQTPEKRLELVAAINSDGGITYYLDTVKGRFTISRDNAKNTLYLQMSSLKSEDTALFYCARHRSGYFSMDYWGQGTSVTVSSGGGGSGGGGSGGGGSDIVMTQSQRFMSTTVGDRVSITCKASQNVVSAVAWYQQKPGQSPKLLIYSASNRYTGVPDRFTGSGSGTDFTLTISNMQSEDLADFFCQQYSNYPWTFGGGTKLEIKSGGGGSQTVVTQEPSLTVSPGGTVTLTCRSSTGAVTTSNYANWVQQKPGQAPRGLIGGTNKRAPGTPARFSGSLLGGKAALTLSGVQPEDEAEYYCALWYSNLWVFGGGTKLTVLGGGGSGGGGSGGGGSEVQLVESGGGLVQPGGSLKLSCAASGFTFNTYAMNWVRQAPGKGLEWVARIRSKYNNYATYYADSVKDRFTISRDDSKNTAYLQMNNLKTEDTAVYYCVRHGNFGNSYVSWFAYWGQGTLVTVSSHHHHHH
notes: the appendix prints the entry with HHHHHH and then *VD at its end
B4: binds [4].

B5: CAIX HL × SEQ ID NO. 170 (bispecific antibody)
chain: DVKLVESGGGLVKLGGSLKLSCAASGFTFSNYYMSWVRQTPEKRLELVAAINSDGGITYYLDTVKGRFTISRDNAKNTLYLQMSSLKSEDTALFYCARHRSGYFSMDYWGQGTSVTVSSGGGGSGGGGSGGGGSDIVMTQSQRFMSTTVGDRVSITCKASQNVVSAVAWYQQKPGQSPKLLIYSASNRYTGVPDRFTGSGSGTDFTLTISNMQSEDLADFFCQQYSNYPWTFGGGTKLEIKSGGGGSEVQLVESGGGLVQPGGSLKLSCAASGFTFNTYAMNWVRQAPGKGLEWVARIRSKYNNYATYYADSVKDRFTISRDDSKNTAYLQMNNLKTEDTAVYYCVRHGNFGNSYVSWFAYWGQGTLVTVSSGGGGSGGGGSGGGGSQTVVTQEPSLTVSPGGTVTLTCRSSTGAVTTSNYANWVQQKPGQAPRGLIGGTNKRAPGTPARFSGSLLGGKAALTLSGVQPEDEAEYYCALWYSNLWVFGGGTKLTVLHHHHHH
notes: as for B4
B5: binds [5].

B6: CAIX LH × SEQ ID NO. 170 (bispecific antibody)
chain: DIVMTQSQRFMSTTVGDRVSITCKASQNVVSAVAWYQQKPGQSPKLLIYSASNRYTGVPDRFTGSGSGTDFTLTISNMQSEDLADFFCQQYSNYPWTFGGGTKLEIKGGGGSGGGGSGGGGSDVKLVESGGGLVKLGGSLKLSCAASGFTFSNYYMSWVRQTPEKRLELVAAINSDGGITYYLDTVKGRFTISRDNAKNTLYLQMSSLKSEDTALFYCARHRSGYFSMDYWGQGTSVTVSSSGGGGSEVQLVESGGGLVQPGGSLKLSCAASGFTFNTYAMNWVRQAPGKGLEWVARIRSKYNNYATYYADSVKDRFTISRDDSKNTAYLQMNNLKTEDTAVYYCVRHGNFGNSYVSWFAYWGQGTLVTVSSGGGGSGGGGSGGGGSQTVVTQEPSLTVSPGGTVTLTCRSSTGAVTTSNYANWVQQKPGQAPRGLIGGTNKRAPGTPARFSGSLLGGKAALTLSGVQPEDEAEYYCALWYSNLWVFGGGTKLTVLHHHHHH
notes: as for B4
B6: binds [6].
